Test results as given in FireProtDB (doi:10.1021/bi00252a018).

Settings: Streptomyces albogriseolus, Thermal, DSC, reversible: yes (70-85%), whole UniProt chain shown

B1: Subtilisin inhibitor wild type, P01006 (protein)
chain: MRNTGAGPSPSVSRPPPSAAPLSGAALAAPGDAPSALYAPSALVLTVGKGVSATTAAPERAVTLTCAPGPSGTHPAAGSACADLAAVGGDLNALTRGEDVMCPMVYDPVLLTVDGVWQGKRVSYERVFSNECEMNAHGSSVFAF
For B1, the Tm (pH 2.9, glycine 25 mM) was 44.5 °C, the Tm (pH 2.94, glycine 25 mM) was 43.9 °C and the Tm (pH 2.98, glycine 25 mM) was 45.4 °C. The Tm (pH 3.03, glycine 25 mM) was 47.8 °C, the Tm (pH 3.04, glycine 25 mM) was 47.6 °C and the Tm (pH 3.07, glycine 25 mM) was 48.8 °C. It also gave a Tm (pH 3.12, glycine 25 mM) of 50.5 °C, a Tm (pH 3.15, glycine 25 mM) of 51.3 °C and a Tm (pH 3.16, glycine 25 mM) of 52.2 °C. For the same protein, the Tm (pH 3.2, glycine 25 mM) was 53.6 °C, the Tm (pH 3.21, glycine 25 mM) was 53.4 °C and the Tm (pH 3.24, glycine 25 mM) was 54.3 °C. The Tm (pH 3.25, glycine 25 mM) was 55.7 °C, the Tm (pH 7, phosphate 25 mM) was 82 °C and the Tm (pH 9.2, glycine 25 mM) was 80.1 °C. For the same protein, the Tm (pH 9.75, glycine 25 mM) was 80.2 °C.
